Blank lines part the entries; values can stand above or below the binder they belong to.
Key:
[1] = biological target: T1, E. coli RAGE Construct #5, 6His-(Thr)-[RAGE (130-234)] (human); test: ELISA: RAGE 130-234 (E. coli, D#1477) coated, mAb titrated, anti-mouse HRP conjugate, TMB
T1 construct: Expressed in E. coli with an N-terminal 6His-(Thr) tag, which is part of the entry; also called RAGE protein #5
T1 chain: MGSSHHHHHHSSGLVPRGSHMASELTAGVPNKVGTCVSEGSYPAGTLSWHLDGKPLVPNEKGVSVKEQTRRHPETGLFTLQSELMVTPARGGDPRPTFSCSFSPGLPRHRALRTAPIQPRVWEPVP
Procedure: (§1) Antigens (purified construct #1-7 proteins) were diluted into Coating Buffer [100 mM NaHCO₃, pH 8.2] to 1 μg/ml, and 100 μl of the resulting solution was then aliquoted into a 96-well Nunc Immuno Plate (Maxi-Sorb Surface, flat bottom, catalog #439454). The plate was sealed with sealing film and incubated at 4° C. overnight. The next day, the plate wells were each washed 3 times with 150 μL PBST buffer [Sigma PBS+0.05% Tween 20]. Then 300 ul of blocking solution (3% NFDM in PBST) was added to each well. The plate was incubated for 2 hours at room temperature and shaking at 100 rpm. After the incubation step, each well was again washed three times with 150 uL PBST. […] The plate was then sealed with sealing film and incubated for 2 hours at room temperature and shaking at 100 rpm. Next the antibody solution was drained out of the wells, and each well then washed three times with 200 ul PBST. To each well then 200 ul of a 1:5000 dilution (in PBST/1% NFDM) of conjugated secondary antibody [Donkey anti-mouse HRPO conjugate, Jackson Immuno Research, Catalog #715-035-150] was added. The plate was covered and allowed to incubate for 1 hour at room temperature while shaking at 100 rpm. Following this incubation, the solution was removed from the wells and each well was washed three times with 200 ul PBST. To each well 100 μL of HRPO substrate [3,3′,5′,5′-Tetramethylbenzidine Liquid Substrate (TMB), Supersensitive for ELISA, Sigma Catalog #T4444] solution was added and the plate incubated at room temperature for 10 minutes. Finally, 50 μL of 2M H₂SO₄ was added to each well to stop the reaction and the A₅₄₀ₙₘ of each well was measured using a microtiter plate reader.

[2] = biological target: T2, E. coli RAGE Construct #3, 6His-(Thr)-[RAGE (24-234)] (human, UniProt Q15109 24-234); test: ELISA: RAGE 24-234 (E. coli, D#1475) coated, mAb titrated, anti-mouse HRP conjugate, TMB
T2 construct: Expressed in E. coli with an N-terminal 6His-(Thr) tag, which is part of the entry; also called RAGE protein #3
Procedure: as §1

[3] = biological target: T3, E. coli RAGE Construct #2, 6His-(Thr)-[RAGE (24-129)] (human); test: ELISA: RAGE 24-129 (E. coli, D#1474) coated, mAb titrated, anti-mouse HRP conjugate, TMB
T3 construct: Expressed in E. coli with an N-terminal 6His-(Thr) tag, which is part of the entry; also called RAGE protein #2
T3 chain: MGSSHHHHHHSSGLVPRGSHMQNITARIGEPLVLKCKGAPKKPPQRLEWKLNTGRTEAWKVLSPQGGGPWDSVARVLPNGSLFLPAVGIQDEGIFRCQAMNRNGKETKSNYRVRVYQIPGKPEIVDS
Procedure: as §1

[4] = biological target: T4, E. coli RAGE Construct #7, 6His-(Thr)-[RAGE (235-336)] (human); test: ELISA: RAGE 235-336 (E. coli, D#1479) coated, mAb titrated, anti-mouse HRP conjugate, TMB
T4 construct: Expressed in E. coli with an N-terminal 6His-(Thr) tag, which is part of the entry; also called RAGE protein #7
T4 chain: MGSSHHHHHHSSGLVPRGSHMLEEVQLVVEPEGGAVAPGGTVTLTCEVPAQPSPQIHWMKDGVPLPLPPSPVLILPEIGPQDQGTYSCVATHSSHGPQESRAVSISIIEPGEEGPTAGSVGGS
Procedure: as §1

[5] = biological target: T5, E. coli RAGE Construct #6, 6His-(Thr)-[RAGE (130-336)] (human, UniProt Q15109 130-336); test: ELISA: RAGE 130-336 (E. coli, D#1478) coated, mAb titrated, anti-mouse HRP conjugate, TMB
T5 construct: Expressed in E. coli with an N-terminal 6His-(Thr) tag, which is part of the entry; also called RAGE protein #6
T5 sequence (Q15109 other isoform, or with tags, fused parts or gaps limits assumed): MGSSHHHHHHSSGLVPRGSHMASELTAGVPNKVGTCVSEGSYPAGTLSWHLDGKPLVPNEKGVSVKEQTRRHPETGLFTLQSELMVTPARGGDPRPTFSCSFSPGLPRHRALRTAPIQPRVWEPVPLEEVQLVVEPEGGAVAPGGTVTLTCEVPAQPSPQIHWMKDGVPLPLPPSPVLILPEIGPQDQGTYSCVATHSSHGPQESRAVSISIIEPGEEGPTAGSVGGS
Procedure: as §1

[6] = biological target: T6, E. coli RAGE Construct #4, 6His-(Thr)-[RAGE (24-336)] (human, UniProt Q15109 24-336); test: ELISA: RAGE 24-336 (E. coli, D#1476) coated, mAb titrated, anti-mouse HRP conjugate, TMB
T6 construct: Expressed in E. coli with an N-terminal 6His-(Thr) tag, which is part of the entry; also called RAGE protein #4
Procedure: as §1

[7] = biological target: T7, recombinant human RAGE (plate coat of the competition ELISA of Example 1.4); test: competition ELISA on plates coated with recombinant human RAGE (2 µg/mL); competitor: biotinylated hybridoma-derived 11E6 (11E6-biotin), streptavidin-HRP, OD 450 nm; the unit comes from the axis 'Log MAbs (M)'
T7 construct: not shown: The carrier of the coated preparation, if it had one
T7 sequence (chain, as listed by the source limits assumed): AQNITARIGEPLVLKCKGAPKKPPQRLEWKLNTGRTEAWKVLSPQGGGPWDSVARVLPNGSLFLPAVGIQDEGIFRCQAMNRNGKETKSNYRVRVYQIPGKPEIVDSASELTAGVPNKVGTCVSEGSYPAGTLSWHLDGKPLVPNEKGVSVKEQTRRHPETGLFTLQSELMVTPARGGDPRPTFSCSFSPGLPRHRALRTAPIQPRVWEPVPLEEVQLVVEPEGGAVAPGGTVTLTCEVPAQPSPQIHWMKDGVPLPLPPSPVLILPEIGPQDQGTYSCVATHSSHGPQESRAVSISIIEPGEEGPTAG
Procedure: (§2) The purified chimeric anti-human RAGE monoclonal antibodies were tested for their ability to bind human RAGE in a competition ELISA. […] Equal volumes (50 μL) of each recombinant chimeric anti-human RAGE monoclonal antibodies or hybridoma-derived anti-human RAGE monoclonal antibodies and each corresponding biotinylated hybridoma-derived anti-RAGE mAbs were mixed. 50 μL of this mixture was then added to ELISA plates pre-coated with recombinant human RAGE at 2 μg/mL and incubated for 1.5 hours at room temperature. Wells were washed three times with PBS+0.05% Tween-20. Streptavidin HRP (1 mg/mL) was diluted 1:16000 in PBST+10% Superblock; 50 µL/well was added and the plates incubated for 1 hour at room temperature. Plates were washed 3 times with PBS+0.05% Tween-20. 50 µL of TMB solution (Sigma, St Louis, Mo.) was added to each well and incubated for 10 minutes at room temperature. The reaction was stopped by addition of IN sulphuric acid. Plates were read spectrophotometrically at a wavelength of 450 nm.

[8] = biological target: T7, recombinant human RAGE (plate coat of …); test: competition ELISA on plates coated with recombinant human RAGE (2 µg/mL); competitor: biotinylated hybridoma-derived 7F9 (7F9-biotin), streptavidin-HRP, OD 450 nm; the unit comes from the axis 'Log MAbs (M)'
Procedure: as §2

binding result [1]: no binding
binding result [2]: no binding
binding result [3]: no binding
EC50 (read off the curve) [4]: ~0.03 nM
EC50 (read off the curve) [5]: ~0.5 nM
EC50 (read off the curve) [6]: ~0.2 nM
B1: anti-human RAGE monoclonal antibody 4E5 (murine, hybridoma-derived) (antibody, V domains shown)
VH: QVQLQQSGAELVRPGTSVKVSCKASGYAFNNYLIEWIKQRPGQGLEWIGVINPGSGGTNHNEKFKVKATLTADKSSSTAYIQLSSLTSDDSAVYFCARSAGTARARFAYWGQGTLVTVSA
VL: DIQMTQSPSSLSASLGERVSLTCRASQDIGSSLNWLQQEPDGTIKRLIYATSSLDSGVPKRFSGSRSGSDYSLTISSLESEDFVDYYCLQYASFPFTFGSGTKLEIKR
notes: also called mAb4E5; ML37-4E5

binding result [1]: no binding
binding result [2]: no binding
binding result [3]: no binding
EC50 [7]: 90.9 nM
EC50 (read off the curve) [4]: ~0.04 nM
EC50 (read off the curve) [5]: ~0.6 nM
EC50 (read off the curve) [6]: ~0.2 nM
B2: anti-human RAGE monoclonal antibody 11E6 (murine, hybridoma-derived) (antibody, V domains shown)
VH: QIQLVQSGPELKKPGETVKISCKASGYTFTNFGMNWVKQAPGKGLKWMGYINTNTGESIYSEEFKGRFAFSLETSASTAYLQINNLKNEDTATYFCARSRMVTAYGMDYWGQGTSVTVSS
VL: DIVMTQSQKFMSTSVGDRVSITCKASQNVGTAVAWYQQRPGQSPKLLIFSASNRYTGVPDRFTGSGSGTDFTLTLSNMQPEDLADYFCQQYSSYPLTFGVGTKLELKR
notes: also called mAb11E6; ML37-11E6

binding result [1]: no binding
EC50 [8]: 166 nM
binding result [2]: no binding
binding result [3]: no binding
binding result [4]: no binding
binding result [5]: no binding
binding result [6]: no binding
B3: anti-human RAGE monoclonal antibody 7F9 (murine, hybridoma-derived) (antibody, V domains shown)
VH: EEKLEESGGGLVQLGGSMKISCVASGFTLSNYWMDWVRQSPEKGLEWIAEIRLKSNYYSTHYAESVKGRFSISRDDSKGSVSLQMDNLTAEDTGIYFCARNAYWYFDVWGTGTTVTVSS
VL: DIVMTQSHKFMSTSVGDRVSATCKASQDVGTSVAWYQQKLGQSPKLLIYWTSTRHTGVPDRFTGSGSGTDFTLTISNVQSEDLADYFCQQYNNYPLTFGDGTKLELKR
notes: also called mAb7F9; MAb 7F9
